According to patent US20250382384A1 (BEONE MEDICINES I, published 2025):
Numbering of substitutions follows the chain as printed.

T1: human MUC1 SEA domain protein (human, UniProt P15941 1036-1155)
T1 construct: also called HuMUC1-SEA; huMUC1 SEA
T1 sequence: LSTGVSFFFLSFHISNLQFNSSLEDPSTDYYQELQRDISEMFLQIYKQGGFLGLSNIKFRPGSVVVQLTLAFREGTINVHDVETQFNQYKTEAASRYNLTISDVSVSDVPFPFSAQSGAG

B1: BG138P-Bz0 (antibody, human IgG1, V domains shown)
VH: QVQLVQSGAEVKKPGASVKVSCKASGYTFTTYTMHWIKQAPGQGLEWIGYINPGSDYTHYNQKFKDKATLTADKSASTAYMELYSLRSEDTAVYYCARQGNYAAYYFDYWGQGTLVTVSS
VL: DIQMTQSPSSLSASVGDRVTITCRASGNIHNFLVWYQQKPGKSPKLLVYNAKTLTDGVPSRFSGSGSGTQYSLTISSLQPEDVATYYCQNFWNVPFTFGSGTKLEIK
notes: human IgG1/Ckappa
B2: BG138P-Hz0 (antibody, human IgG1, V domains shown)
VH: B1 VH with I37V, K38R, G44R, I48M, K67R, A68V, L70I, A72R, K74T, Y84S
VL: B1 VL with S43V, V48I, Q70D, Y71F, S72T, S100Q
notes: human IgG1/Ckappa
B3: BG138P-Bz5 (antibody, human IgG1, V domains shown)
VH: B1 VH with K67R
VL: B1 VL
notes: human IgG1/Ckappa
B4: BG138P-Bz3 (antibody, human IgG1, V domains shown)
VH: B1 VH with G44R
VL: B1 VL
notes: human IgG1/Ckappa
B5: BG138P-Bz13 (antibody, human IgG1, V domains shown)
VH: B1 VH
VL: B1 VL with Q70D
notes: human IgG1/Ckappa
B6: BG138P-Bz16 (antibody, human IgG1, V domains shown)
VH: B1 VH
VL: B1 VL with S100Q
notes: human IgG1/Ckappa
B7: BG138P-Bz6 (antibody, human IgG1, V domains shown)
VH: B1 VH with A68V
VL: B1 VL
notes: human IgG1/Ckappa
B8: BG138P-Bz2 (antibody, human IgG1, V domains shown)
VH: B1 VH with K38R
VL: B1 VL
notes: human IgG1/Ckappa
B9: BG138P-Bz11 (antibody, human IgG1, V domains shown)
VH: B1 VH
VL: B1 VL with S43V
notes: human IgG1/Ckappa
B10: BG138P-Bz12 (antibody, human IgG1, V domains shown)
VH: B1 VH
VL: B1 VL with V48I
notes: human IgG1/Ckappa
B11: BG138P-Bz7 (antibody, human IgG1, V domains shown)
VH: B1 VH with L70I
VL: B1 VL
notes: human IgG1/Ckappa
B12: BG138P-Bz15 (antibody, human IgG1, V domains shown)
VH: B1 VH
VL: B1 VL with S72T
notes: human IgG1/Ckappa
B13: BG138P-Bz9 (antibody, human IgG1, V domains shown)
VH: B1 VH with K74T
VL: B1 VL
notes: human IgG1/Ckappa
B14: BG138P-Bz1 (antibody, human IgG1, V domains shown)
VH: B1 VH with I37V
VL: B1 VL
notes: human IgG1/Ckappa
B15: BG138P-Bz14 (antibody, human IgG1, V domains shown)
VH: B1 VH
VL: B1 VL with Y71F
notes: human IgG1/Ckappa
B16: BG138P-Bz4 (antibody, human IgG1, V domains shown)
VH: B1 VH with I48M
VL: B1 VL
notes: human IgG1/Ckappa
B17: BG138P-Bz10 (antibody, human IgG1, V domains shown)
VH: B1 VH with Y84S
VL: B1 VL
notes: human IgG1/Ckappa
B18: BG138P-Bz8 (antibody, human IgG1, V domains shown)
VH: B1 VH with A72R
VL: B1 VL
notes: human IgG1/Ckappa
B19: huBG138P-Hz3 (antibody, V domains shown)
VH: B1 VH with I37V, K38R, I48M, K67R, A68V, L70I, Y84S
VL: B1 VL with S43V, V48I, D56S, Q70D, S72T, S100Q
notes: humanized; constant regions not restated
B20: huBG138P-Hz1 (antibody, V domains shown)
VH: B1 VH with I37V, K38R, G44R, I48M, K67R, A68V, L70I, K74T, Y84S
VL: B1 VL with S43V, V48I, D56S, Q70D, S72T, S100Q
notes: humanized; constant regions not restated (IgG1/Ckappa vector used for the first round)
B21: huBG138P-Hz4 (antibody, V domains shown)
VH: B1 VH with I37V, K38R, I48M, K67R, A68V, L70I, Y84S
VL: B1 VL with V48I, D56S, S72T, S100Q
notes: as for B19

molecular target: T1, human MUC1 SEA domain protein; assay: SPR (Biacore 2000), antibody captured, huMUC1 SEA analyte, 1:1 binding

Kd [nM]	Binder
0.464	B1
0.527	B2
0.475	B3
0.532	B4
0.453	B5
0.466	B6
0.518	B7
0.453	B8
0.513	B9
0.501	B10
0.407	B11
0.493	B12
0.476	B13
0.503	B14
0.608	B15
0.488	B16
0.448	B17
0.608	B18

molecular target: T1, human MUC1 SEA domain protein; assay: SPR, antibody captured, huMUC1 SEA analyte

Binder	Kd [nM]
B19	0.242
B20	0.241
B21	0.223
